{"source": "paper PMC5509884", "about": "“Dampened activity of ryanodine receptor channels in mutant skeletal muscle lacking TRIC‐A” (The Journal of Physiology, 2017)", "proteins": {"B1": {"name": "mouse TRIC-A (type A trimeric intracellular cation channel), full length, with an N-terminal PA-tag (natural protein, UniProt Q3TMP8 1-298, looked up)", "chain": "MDLMSALSLGELALSFSRVPLFPVFDLSYFIVSIIYLKYEPGAVELSRRHPVASWLCAMLHCFGSYILADLLLGEPIIDYFSNSSSILLASGVWYLIFFCPLDLFYKCVCFLPVKLIFVAMKEVVRVRKIAVGIHHAHHHYHHGWFIMIATGWVKGSGVALLSNVEQLLRGVWKPETNEILHMSFPTKASLYGAILFTLQQTRWLPVSKASLIFVFTMFMVSCKVFLTATHSHSSPFDILEGYICPVLFGATWGGDHHHDNHGAPHGMGLGTQHSGLPAKAKEELGEGSRKKKTKKAD", "notes": "TRIC-A (trimeric intracellular cation channel type A), mouse, full-length cDNA; The introduction says, citing other work, that TRIC channels are trimers of three monomers of about 30 kDa; also called purified TRIC-A; recombinant TRIC-A; not shown: PA-tag, N-terminal, kept"}}, "molecular_target": "the molecule itself", "assay": "SDS-PAGE immunoblot of the purified protein; anti-PA tag immunoblot of the fractions of the PA-tag column purification of recombinant TRIC-A from CHO cells (buffers with 0.1% DM); bands marked as monomer, dimer and trimer", "data": [{"protein": "B1", "values": [{"measurement": "binding result", "value": "binds"}]}]}
